Source: US20150080549A1 (Chugai, published 2015)
Starred links: 1 amine or outer side, 2 acyl side, 3 side chain; linkers in the order of their positions; H or OH if unused. Positions of bridges follow the written chain, without caps; N, C: chain ends. Non-standard residues stand in square brackets, D forms with d. Hyp(Et) = (2S,4R)-4-ethoxypyrrolidine-2-carboxylic acid, CCO[C@@H]1C[C@@H](C(=O)[*:2])N([*:1])C1; γEtAbu = 4-(ethylamino)butanoic acid, CCN(CCCC(=O)[*:2])[*:1]; Phe(4-CF3) = N[C@@H](Cc1ccc(C(F)(F)F)cc1)C(=O)O; NMeAla(4-thiazolyl) = CN[C@@H](Cc1cscn1)C(=O)O; NMePhe(3-Cl) = CN[C@@H](Cc1cccc(Cl)c1)C(=O)O; Met(O2) = CS(=O)(=O)CC[C@H](N)C(=O)O; NMeF = CN[C@@H](Cc1ccccc1)C(=O)O; FlPu(urea) = not defined here; Phg = N[C@H](C(=O)O)c1ccccc1; NMeS = CN[C@@H](CO)C(=O)O; βAla = NCCC(=O)O; Sar = CNCC(=O)O

T1: biotinylated Interleukin-6 receptor (IL-6R) (human, UniProt P08887 20-344, limits assumed, biotinylated (method of BMC biotechnology, 2008, 8, 41 and Protein Science, 1999, 8, 921-929); site not stated)
T1 construct: also called human IL-6 receptor; hIL-6R
T1 sequence (looked up): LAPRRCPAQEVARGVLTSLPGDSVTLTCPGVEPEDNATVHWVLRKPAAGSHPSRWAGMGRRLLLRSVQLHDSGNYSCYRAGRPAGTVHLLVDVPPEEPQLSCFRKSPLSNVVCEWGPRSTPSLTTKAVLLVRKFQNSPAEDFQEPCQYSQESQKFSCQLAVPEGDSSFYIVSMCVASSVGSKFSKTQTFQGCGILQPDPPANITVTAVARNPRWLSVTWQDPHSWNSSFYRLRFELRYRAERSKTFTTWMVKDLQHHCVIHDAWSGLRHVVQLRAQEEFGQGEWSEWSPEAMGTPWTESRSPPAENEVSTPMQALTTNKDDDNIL


Biological target: T2, biotinylated Recombinant Human Tumor Necrosis Factor-alpha (Prospec, Catalog Number #CYT-223) (human, UniProt P01375 77-233, biotinylated with EZ-Link NHS-PEG4-Biotin (Thermo scientific 21329); sites not stated)
T2 construct: Bought protein; also called TNFα; tumor necrosis factor-α
T2 sequence (P01375 77-233 limits assumed): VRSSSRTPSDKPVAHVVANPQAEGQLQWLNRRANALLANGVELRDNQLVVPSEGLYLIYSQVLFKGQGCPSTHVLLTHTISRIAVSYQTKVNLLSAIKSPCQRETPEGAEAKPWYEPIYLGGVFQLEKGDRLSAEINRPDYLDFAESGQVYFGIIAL
Test: ECL immunoassay (MSD): biotinylated target on streptavidin plate, translated FlPu(urea)-labelled cyclic peptide (Translation Solution T), anti-fluorescein and SULFO-TAG anti-mouse antibody; no-template control 232
Method: (§1) 0.5 μl of a 200 mM EDTA solution (pH 8.0, Nacalai, 14362-24) and 0.5 μl of a 100 mM TCEP solution (pH 6.6) were added to 5 μL of the translation mixture, and the mixture was incubated at 37° C. for 120 minutes to cause cyclization reaction. 11 μL of desulfurization buffer (15 mM cysteine, 36 mM TCEP) was added to the cyclization product, and the mixture was incubated at 42° C. for 1 minutes, after which 4 μL of 1 M VA-044 (Wako, CAS No. 27776-21-2) was added and the mixture was allowed to stand at 42° C. for 1 hour.
(§2) Immunoassay was carried out using the above peptide solution for ECL assay. 500 nM biotinylated target protein was added at 10 μL per well to MSD Streptavidin MULTI-ARRAY 384-well plate (Meso Scale Discovery, L25SB-1), and reaction was conducted at room temperature for 1 hour with shaking at 500 rpm to immobilize the target protein. 2% skim milk PBS was added at 50 μL per well, and blocking was carried out by allowing to stand at room temperature for 2 hours. The reaction solution was removed and the plate was washed with PBS containing 0.05% Tween 20 (PBST) three times, after which 10 μL of the peptide solution for ECL assay was added and the plate was shaken at room temperature for 50 minutes at 500 rpm. The reaction solution was removed and the plate was washed with PBST three times, after which 10 μL of IgG Fraction Monoclonal Mouse Anti-Fluorescein (Jackson ImmunoResearch, 200-002-037) diluted to 0.5 μg/mL with 2% skim milk PBS was added, and reaction was conducted at room temperature for 50 minutes with shaking at 500 rpm. The reaction solution was removed and the plate was washed with PBST three times, after which 10 μL of SULFO-TAG Anti-Mouse Antibody (Meso Scale Discovery, R32AC-5) diluted to 1 μg/mL with 2% skim milk PBS was added, and reaction was conducted at room temperature for 50 minutes with shaking at 500 rpm. The reaction solution was removed and the plate was washed with PBST three times, after which 35 μl, of 2× Read Buffer T (Meso Scale Discovery, R92TC-3) was added and measurement was carried out using SECTOR Imager 2400 (Meso Scale Discovery).

Binder | ECL signal
A[Phe(4-CF3)]WWV[Sar]GP[Hyp(Et)]SD[NMeS][Met(O2)]SGSGSGS-{FlPu(urea)} (lactam N-11; reading uncertain, Translated in ECL Translation Solution T, cyclized and desulfurized; not isolated; also called translation product of template DNA DME-8) [SEQ ID NO: PE-8 (TNFα binder) peptide] | 73300
A[NMeAla(4-thiazolyl)]IPVWW[Phe(4-CF3)][Met(O2)]VDW[NMeAla(4-thiazolyl)]SGSGSGS-{FlPu(urea)} (lactam N-11; reading uncertain, Translated in ECL Translation Solution T, cyclized and desulfurized; not isolated; also called translation product of template DNA DME-9) [SEQ ID NO: PE-9 (TNFα binder) peptide] | 264000
ATWI[NMeF][Phg]W[βAla][Phe(4-CF3)][Phg]DVTSGSGSGS-{FlPu(urea)} (lactam N-11; reading uncertain, Translated in ECL Translation Solution T, cyclized and desulfurized; not isolated; also called translation product of template DNA DME-11) [SEQ ID NO: PE-11 (TNFα binder) peptide] | 149000
ATIP[dY]WW[Phe(4-CF3)][Met(O2)]VDW[NMeAla(4-thiazolyl)]SGSGSGS-{FlPu(urea)} (lactam N-11; reading uncertain, Translated in ECL Translation Solution T, cyclized and desulfurized; not isolated; also called translation product of template DNA DME-10) [SEQ ID NO: PE-10 (TNFα binder) peptide] | 50700

Biological target: T1, biotinylated Interleukin-6 receptor …
Test: ECL immunoassay (MSD): biotinylated target on streptavidin plate, translated FlPu(urea)-labelled cyclic peptide (Translation Solution T), anti-fluorescein and SULFO-TAG anti-mouse antibody; no-template control 177
Method: as §1, §2

ECL signal | Binder
45600 | AII[NMeAla(4-thiazolyl)]WP[NMePhe(3-Cl)][Met(O2)][dY][βAla]DP[NMePhe(3-Cl)]SGSGSGS-{FlPu(urea)} (lactam N-11; reading uncertain, Translated in ECL Translation Solution T, cyclized and desulfurized; not isolated; also called translation product of template DNA DME-14) [SEQ ID NO: PE-14 (IL-6R binder) peptide]
537000 | APVI[NMeF][Met(O2)]P[NMePhe(3-Cl)]V[Met(O2)]DP[Sar]SGSGSGS-{FlPu(urea)} (lactam N-11; reading uncertain, Translated in ECL Translation Solution T, cyclized and desulfurized; not isolated; also called translation product of template DNA DME-13) [SEQ ID NO: PE-13 (IL-6R binder) peptide]
70000 | APIIW[NMePhe(3-Cl)][Met(O2)]P[NMePhe(3-Cl)][dY]DV[dY]SGSGSGS-{FlPu(urea)} (lactam N-11; reading uncertain, Translated in ECL Translation Solution T, cyclized and desulfurized; not isolated; also called translation product of template DNA DME-3) [SEQ ID NO: PE-3 (IL-6R binder) peptide]
307000 | APII[NMeF][Met(O2)]P[NMePhe(3-Cl)][dY]VDSTSGSGSGS-{FlPu(urea)} (lactam N-11; reading uncertain, Translated in ECL Translation Solution T, cyclized and desulfurized; not isolated; also called translation product of template DNA DME-2) [SEQ ID NO: PE-2 (IL-6R binder) peptide]

Biological target: T2, biotinylated Recombinant Human Tumor …
Test: SPR, Biacore T200, 20 C; biotinylated TNFα captured on sensor chip CAP, peptide as analyte; KD=koff/kon from curve fitting
Method: An SPR experiment for analyzing the interaction between synthetic peptides and TNFα was conducted using Biacore T200 (GE healthcare) at 20° C. Synthetic peptides were added to the immobilized protein, and the interaction was evaluated.
Surfactant P-20 and DMSO were added to the above phosphate buffered saline at final concentrations of 0.01 vol % and 5 vol %, respectively, and the resulting mixture was used as running buffer. CAP reagent was immobilized on a Biacore sensor chip, Series S sensor chip CAP (GE healthcare), according to the instructions, and biotinylated TNFα was immobilized. Each synthetic peptide was added at multiple concentrations, and sensorgrams for binding to the immobilized TNFα were provided to measure dissociation constants (KD).
The obtained sensorgrams were analyzed using T200 evaluation software (GE healthcare) or Scrubber2 (Biologic software). First, solvent correction for DMSO and double reference (correction by subtracting sensorgrams of flow cells where TNFα was not immobilized and sensorgrams in the case where the buffer was added) were carried out. Second, binding rate constants (kₒₙ) and dissociation rate constants (koff) were calculated from curve fitting to the corrected sensorgrams, and KDs were determined by the relational expression KD=koff/kₒₙ.

Binder | Kd [nM]
ATIP[dY]WW[Phe(4-CF3)][Met(O2)]VDW[NMeAla(4-thiazolyl)]S-OH (lactam N-11; SMILES CC[C@H](C)[C@@H]1NC(=O)[C@H]([C@@H](C)O)NC(=O)[C@H](C)NC(=O)C[C@@H](C(=O)N[C@@H](Cc2c[nH]c3ccccc23)C(=O)N(C)[C@@H](Cc2cscn2)C(=O)N[C@@H](CO)C(=O)O)NC(=O)[C@H](C(C)C)NC(=O)[C@H](CCS(C)(=O)=O)NC(=O)[C@H](Cc2ccc(C(F)(F)F)cc2)NC(=O)[C@H](Cc2c[nH]c3ccccc23)NC(=O)[C@H](Cc2c[nH]c3ccccc23)NC(=O)[C@@H](Cc2ccc(O)cc2)NC(=O)[C@@H]2CCCN2C1=O, Chemically synthesized, HPLC purified) [Compound SP846] | 2000
[γEtAbu]T[Phg]I[NMeAla(4-thiazolyl)]WW[Phe(4-CF3)][dY][NMePhe(3-Cl)]DP[Sar]S-OH (lactam N-11; SMILES CC[C@H](C)[C@@H]1NC(=O)[C@H](c2ccccc2)NC(=O)[C@H]([C@@H](C)O)NC(=O)CCCN(CC)C(=O)C[C@@H](C(=O)N2CCC[C@H]2C(=O)N(C)CC(=O)N[C@@H](CO)C(=O)O)NC(=O)[C@H](Cc2cccc(Cl)c2)N(C)C(=O)[C@@H](Cc2ccc(O)cc2)NC(=O)[C@H](Cc2ccc(C(F)(F)F)cc2)NC(=O)[C@H](Cc2c[nH]c3ccccc23)NC(=O)[C@H](Cc2c[nH]c3ccccc23)NC(=O)[C@H](Cc2cscn2)N(C)C1=O, Chemically synthesized, HPLC purified) [Compound SP842] | 160
A[NMeAla(4-thiazolyl)]IPVWW[Phe(4-CF3)][Met(O2)]VDW[NMeAla(4-thiazolyl)]S-OH (lactam N-11; SMILES CC[C@H](C)[C@@H]1NC(=O)[C@H](Cc2cscn2)N(C)C(=O)[C@H](C)NC(=O)C[C@@H](C(=O)N[C@@H](Cc2c[nH]c3ccccc23)C(=O)N(C)[C@@H](Cc2cscn2)C(=O)N[C@@H](CO)C(=O)O)NC(=O)[C@H](C(C)C)NC(=O)[C@H](CCS(C)(=O)=O)NC(=O)[C@H](Cc2ccc(C(F)(F)F)cc2)NC(=O)[C@H](Cc2c[nH]c3ccccc23)NC(=O)[C@H](Cc2c[nH]c3ccccc23)NC(=O)[C@H](C(C)C)NC(=O)[C@@H]2CCCN2C1=O, Chemically synthesized, HPLC purified) [Compound SP845] | 940
A[Phe(4-CF3)]WWV[Sar]GP[Hyp(Et)]SD[NMeS][Met(O2)]S-OH (lactam N-11; SMILES CCO[C@@H]1C[C@H]2C(=O)N[C@@H](CO)C(=O)N[C@H](C(=O)N(C)[C@@H](CO)C(=O)N[C@@H](CCS(C)(=O)=O)C(=O)N[C@@H](CO)C(=O)O)CC(=O)N[C@@H](C)C(=O)N[C@@H](Cc3ccc(C(F)(F)F)cc3)C(=O)N[C@@H](Cc3c[nH]c4ccccc34)C(=O)N[C@@H](Cc3c[nH]c4ccccc34)C(=O)N[C@@H](C(C)C)C(=O)N(C)CC(=O)NCC(=O)N3CCC[C@H]3C(=O)N2C1, Chemically synthesized, HPLC purified) [Compound SP844] | 20
ATWI[NMeF][Phg]W[βAla][Phe(4-CF3)][Phg]DVTS-OH (lactam N-11; SMILES CC[C@H](C)[C@@H]1NC(=O)[C@H](Cc2c[nH]c3ccccc23)NC(=O)[C@H]([C@@H](C)O)NC(=O)[C@H](C)NC(=O)C[C@@H](C(=O)N[C@H](C(=O)N[C@H](C(=O)N[C@@H](CO)C(=O)O)[C@@H](C)O)C(C)C)NC(=O)[C@H](c2ccccc2)NC(=O)[C@H](Cc2ccc(C(F)(F)F)cc2)NC(=O)CCNC(=O)[C@H](Cc2c[nH]c3ccccc23)NC(=O)[C@H](c2ccccc2)NC(=O)[C@H](Cc2ccccc2)N(C)C1=O, Chemically synthesized, HPLC purified) [Compound SP848] | 250
